Reference: patent US20190352642A1

Molecular target: complement C1q (in Hamster complement, Abcham Ab155111) (hamster)
Experiment: cell-based or functional assay

Row | Substance | complement-induced hemolysis of Fc coupled RBC (OD 540 nm, against 100% hemolysis by Tween-20); 6 nm activated Fc (about 5x10^6 molecules per RBC) [%] | complement-induced hemolysis of Fc coupled RBC; 1.2 nm activated Fc (about 1x10^6 molecules per RBC) [%] | complement-induced hemolysis of IgG coupled RBC (OD 540 nm, against 100% hemolysis by Tween-20); 6 nm activated IgG (about 5x10^6 molecules per RBC) [%] | complement-induced hemolysis of IgG coupled RBC; 1.2 nm activated IgG (about 1x10^6 molecules per RBC) [%] | complement-induced hemolysis when about 1-2x10^4 IgG molecules were bound per one RBC (not shown) [%]
1 | h-IgG Fc fragment (Sigma Aldrich), chemically coupled to human red blood cells | 80 | 30 to 40 | – | – | –
2 | h-IgG (Sigma Aldrich), chemically coupled to human red blood cells (antibody) | – | – | 90 | 30 to 40 | 85 to 95
